The data set can be described thus: yeast display, Sf9 membrane polyspecificity reagent, FACS + sequencing; frameworks hold sequencing errors. In outline:
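After 36–48 hours of galactose induction, yeast (Saccharomyces cerevisiae BJ5465) displaying a synthetic nanobody library were stained at 4 °C for 1 hour with 10% biotinylated, detergent-solubilized Sf9 membrane reagent. Streptavidin microbeads enriched the stained cells before FACS sorting into low and high (top ~1%) gates on anti-HA and streptavidin fluorescence. Each clone's polyreactivity label reflects its gate of origin.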
On to “QVQLVESGGGLVQAGGSLRLSCAASGSTFYHYVMGWYRQAPGKERELGAAISWRGGRTYYADSVKGRFTISRDTAKNTVYLQMNSLKPEDTAVYYCARAYFQPSYYGVEYNYWGQGTQVTVSS”, for which the “polyreactivity (PSR sort gate)” value is listed as “high polyreactivity”.
Next, “QVQLVESGGGLVQAGGSLRLSCAASGSTFYINAMGWYRQAPGKEREFVAAITSRGGSTYYADSVKGRFTISRDNAKNTVYLQMNSLKPEDTAVYYCAARNFLSRRGTYDYWGQGTQVTVSS”: “high polyreactivity”; “QVQLVESGGGLVQAGGSLRLSCAASGSTFYINAMGWYRQAPGKERELVAAISWSTTITYYADSVKGRFTISRDNAKNTVYLQMNSLKPEDTAVYYCAAEEEYWDYSGGGYWGQGTQVTVSS”: “high polyreactivity”; “QVQLVESGGGLVQAGGSLRLSCAASGSTFYIYAMGWYRQAPGKERELVAAITSGGNTYYADSVKGRFTISRDNAKNTVYLQMNSLKPEDTAVYYCAAELYDRWSRMDYWGQGTQVTVSS”: “low polyreactivity”.
Next, “QVQLVESGGGLVQAGGSLRLSCAASGSTFYIYAMGWYRQAPGKERELVAAITWSGGRTFYADSVKGRFTISRDNAKNTVYLHMNSLKPEDTAVYFCSARFWSDKTGSRYYYWGQGTQVTVSS”: “high polyreactivity”.
In the case of “QVQLVESGGGLVQAGGSLRLSCAASGSTFYKYAMGWYRPAPGKERELVAAISRGGSTYYADSVKGRFTISRDNAKNTVYLQMNSLKPEDTAVYYCAALYGLGRPQDSTFLFDYWGQGTQVTVSS”, the “polyreactivity (PSR sort gate)” value was “low polyreactivity”.
In the case of “QVQLVESGGGLVQAGGSLRLSCAASGSTFYLNAMGWYRQAPGKERELVAAINGSGGSTYADSVKGRFTISRDNAKNTVYLQMNSLKPEDTAVYYCAADGTGYPGYSYPGNDYDYWGQGTQVTVSS”, the “polyreactivity (PSR sort gate)” value was “low polyreactivity”.
Take “QVQLVESGGGLVQAGGSLRLSCAASGSTFYLNAMGWYRQAPGKERELVAAITVSGGSTYYADSVKGRFTISRDNAKNTVYLQMNSLKPEDTAVYYCARELLSPTYPRWYYYWGQGTQVTVSS”: the “polyreactivity (PSR sort gate)” value was “low polyreactivity”.
The value for “QVQLVESGGGLVQAGGSLRLSCAASGSTFYLNDMGWYRQAPGKERELVAAIDWSGGSTYYADSVKGRFTISRDNAKNTVYLQMNSLNPEDTAVYYCAARLVYEWRRLDYFIAWDYWGQGTQVTVSS” was “low polyreactivity”.
Next, “QVQLVESGGGLVQAGGSLRLSCAASGSTFYLYAMGWYRQAPGKERELVADISWDGDSTYYADSVKGRFTISRDNAKNTVYLQMNSLKPEDTAVYYCAADYFYYYEQYLWYTYDYWGQGTQVTVSS”: “high polyreactivity”; “QVQLVESGGGLVQAGGSLRLSCAASGSTFYLYAMGWYRQAPGKERELVASITYSGASTYYADSVKGRFTISRDNAKNTVYLQMNSQKPEDTAVYYCAADQRGWFAVGSQRKYNYWGQGTQVTVSS”: “low polyreactivity”; “QVQLVESGGGLVQAGGSLRLSCAASGSTFYLYGMGWYRQAPGKERELVAAITYSGGSTYYADSVKGRFTISRDNAKNTVYLQMNSLKPEDTAVYYCNARSQWRSSRFYYWGQGTQVTVPS”: “high polyreactivity”.
Next, “QVQLVESGGGLVQAGGSLRLSCAASGSTFYNAMGWYIQAPGKERELVAGISRNGGSTRYADSVKGRFTISRDNAKNTVYLQSHSQKPEDTAVSYCAAGYYDYGWDYANDYWGQGTQVTVSS”: “low polyreactivity”; “QVQLVESGGGLVQAGGSLRLSCAASGSTFYNYAMGWCRLAPGKERELVAATSSGGSTNYADSVKGRFTISRDNAKNTVFLQMISLKPEDNAVYYCARRHRVYPSRIGHDYWGQGTQVTVSS”: “low polyreactivity”.
Consider “QVQLVESGGGLVQAGGSLRLSCAASGSTFYNYAMGWYRQAPGKERELVAAISSGGGITYYADSVKGRFTISRDNAKNTVYLQMNSLKPEDTAVYYCNARRKYLGYNYWGQGSQVTVSS”, for which the “polyreactivity (PSR sort gate)” value is listed as “high polyreactivity”.
Next, “QVQLVESGGGLVQAGGSLRLSCAASGSTFYNYAMGWYRQAPGKERELVAAISSGGGITYYADSVKGRFTISRDNAKNTVYLQMNSLKPEDTAVYYCNVVNYYPKGNNRAQYWFNYWGQGTQVNVSS”: “high polyreactivity”; “QVQLVESGGGLVQAGGSLRLSCAASGSTFYPNAMGWYRQAPGKEREFVAAITWSGGRTYYADSVKGRFTISRDNAKNTVYLLMNSLKPEDTAVYYCAVGGNSRRYWGQGTQVTVSS”: “high polyreactivity”.
Turning to “QVQLVESGGGLVQAGGSLRLSCAASGSTFYPNAMGWYRQAPGKERELVAAISRGTRTKYADSVKGRFTISRDNAKNTVYLQMNSLKPEDTAVYYCAKRYYGSPQLRYYYWGQGTQVTVSS”, the “polyreactivity (PSR sort gate)” value is given as “high polyreactivity”.
The value for “QVQLVESGGGLVQAGGSLRLSCAASGSTFYPNAMGWYRQAPGKERELVAAISWSGGRTYYADSVKGRFTISRDNAKNTVYLQMNSLKPEDTAVYYCNAARYPSSWYYKLDYWGQGTQVTVSS” was “high polyreactivity”.
The value for “QVQLVESGGGLVQAGGSLRLSCAASGSTFYPYAMGGYRQAPGKERELVARITQNGGSTYYADSVKGRFKISRDNAKNPVYLQMNSLKPEDTAVYYCADRWISVLSYGKYDYCGQGTQVTVSS” was “high polyreactivity”; that for “QVQLVESGGGLVQAGGSLRLSCAASGSTFYPYAMGWYRQAPGKERELVAAISSGGSTNYADSVKGRFTISRDNAKNTVYLQMNSLKPEDTAVYYCAAEDWSLYDYGDRLWYSPYYYWGQGTQVTVSS” was “high polyreactivity”; that for “QVQLVESGGGLVQAGGSLRLSCAASGSTFYPYAMGWYRQAPGKERELVAAISSGGSTSYADSVKGRFTISRDNAKNTFYLQMNSLKPEDTAVYYCNASSPGAVPVYDYDYWGQGTQVTVSS” was “low polyreactivity”.
The value for “QVQLVESGGGLVQAGGSLRLSCAASGSTFYPYAMGWYRQAPGKERELVAAISSSGGSTYYADSVKGRFTISRDNAKNTVYLQMNSLKPEDTAVYYCNADVHSQYDYWGQGTQVTVSS” was “low polyreactivity”; that for “QVQLVESGGGLVQAGGSLRLSCAASGSTFYPYAMGWYRQATGKERELVAAISYSGGSKYYADSVKGRFTISRDNAKNTVYLQMNSLKPEDTAVYYCAAYYRVYGASYDYWGQVTQVTVSS” was “high polyreactivity”; that for “QVQLVESGGGLVQAGGSLRLSCAASGSTFYPYTMGWYRQAPGKERELVASISTTGGSTNYADSVKGRFTISRDNAKNTVYLQMNSLKPEDTAVYYCAARSNYTRRLYYYYWGLGTQVTVSS” was “high polyreactivity”.
Take “QVQLVESGGGLVQAGGSLRLSCAASGSTFYQNAMGWYRQAPGKERELVAAISGGSDTYYADSVKGRFTISRDNAKNTVYLQMNSLKPEDTAFYYCAADVASSEGKSWTLKDEYDYWGQGTQVTVSS”: the “polyreactivity (PSR sort gate)” value is “low polyreactivity”.
For “QVQLVESGGGLVQAGGSLRLSCAASGSTFYQSVMGWYRQAPGKERELVADITNGGSTYYADSVKGRFTISRDNAKNTVYLQMNSLKPEDTAVYYCAADGGYYWYTYWYGGLYYWGQGTQVTVSS”, the “polyreactivity (PSR sort gate)” value is reported as “high polyreactivity”.
Take “QVQLVESGGGLVQAGGSLRLSCAASGSTFYRNAMGWYRQAPGKEREFVAAISFRGGGTYADSVKGRFTISRDNAKNTVYLQMNSLKPEDTAVYYCAADYSVYWLDYGYWGQGTQVTVSS”: the “polyreactivity (PSR sort gate)” value was “low polyreactivity”.
The value for “QVQLVESGGGLVQAGGSLRLSCAASGSTFYRNAMGWYRQAPGKERELVAAISRGGSTYYADSVKGRFTISRDNAKNTVYLQMNSLKPEDTAVYYCNTDVNYAGYGWYYYWGQGTQVTVSS” was “high polyreactivity”; that for “QVQLVESGGGLVQAGGSLRLSCAASGSTFYRNAMGWYRQAPGKERELVAAITSGGSSTYYADSVKVRFTISRDNAKNTVYLQMNSLKPEDTAVYYCAAEPGIYYYWGQGTQVTVSS” was “low polyreactivity”; that for “QVQLVESGGGLVQAGGSLRLSCAASGSTFYRNAMGWYRQAPGKERELVATITFNGGSTYYADSVKGRFTISRDNAKNTVYLQMNSLKPEDTAVYYCNTDWRGDPELYDYWGQGTQVTVSS” was “low polyreactivity”.
On to “QVQLVESGGGLVQAGGSLRLSCAASGSTFYRNAMGWYRQAPGKERELVAVITERGGNTYYADSVKGRFTISRDNAKNTVYLQMNSLKPEDTAVYYCNKQGFVDRGRYRYYWGQGTQVTVSS”, for which the “polyreactivity (PSR sort gate)” value is on record as “high polyreactivity”.
Next, “QVQLVESGGGLVQAGGSLRLSCAASGSTFYRYAMGGYRPAPGKEREFVAAISGSGGSTRYADSVKGRFTISRDNAKNTVYLQMNSLKPEDTAVYYCAARSRYGYITFDYWGQGTQVTVSS”: “high polyreactivity”; “QVQLVESGGGLVQAGGSLRLSCAASGSTFYRYAMGWYRPAPGKERELVAAITSAGSTNYADSVKGRFTISRDNAKNTVYLQMNSLKPEDTAVYYCAKDLTRWGYNEYDYWGQGSQVTVSS”: “low polyreactivity”; “QVQLVESGGGLVQAGGSLRLSCAASGSTFYRYAMGWYRQAPGKEREFVAAISGSGGSTRYADSVKGRFTISRDNAKNTVYLQMNSLKPEDTAVYYCAARSRDGYITFDYWGQGTQVTVSS”: “high polyreactivity”.
As to “QVQLVESGGGLVQAGGSLRLSCAASGSTFYRYAMGWYRQAPGKERELVAAISSDGTTYYADSVKGRFTISRDNAKNTVYLQMNCLNPVDTAVYYCAKERSRYYPYDYWGQGTQVTVSS”, the “polyreactivity (PSR sort gate)” value is listed as “high polyreactivity”.
Consider “QVQLVESGGGLVQAGGSLRLSCAASGSTFYRYAMGWYRQAPGKERELVAAISSGGRTYYADSVKGRFTISRDNAKNTVYLQMNSLKPEDTAVYYCATSWTFRQGYNYWGQGTQVTVSS”, for which the “polyreactivity (PSR sort gate)” value was “high polyreactivity”.
Next, “QVQLVESGGGLVQAGGSLRLSCAASGSTFYRYAMGWYRQAPGKERELVAAISSSGGSTYYADSVKGRFTISRDNAKNTVYLQMNSLKPEDTAVYYCNADVHSQYDYWGQGTQVTVSS”: “low polyreactivity”; “QVQLVESGGGLVQAGGSLRLSCAASGSTFYRYAMGWYRQAPGKERELVAAISTRSGSTYYADSVKGRFTISRDNAKNTVYLQMNSLKPEDTAVYYCAADGHKKTARKYYYWGQGTEVTVSS”: “low polyreactivity”.
Take “QVQLVESGGGLVQAGGSLRLSCAASGSTFYRYAMGWYRQAPGKERELVAAISWDGGRTYYADSVKGRFTISRDNAKNTVYLQMNSLKPEDTAVYYCNARSSQYLGRYDYWGQGTQVTVSS”: the “polyreactivity (PSR sort gate)” value is reported as “high polyreactivity”.

(Values after the nanobody polyreactivity screen of Harvey et al. (2022).)
